Measurements published in patent publication US8163700B2, “Inhibitors of myelin-associated glycoprotein (MAG) activity for regulating neural growth and regeneration” (Research Foundation of City University of New York, priority 2002, dated 2012).
“Also recorded” adds a separate entry of the source.

Experiments:
NgR = biological target: T1, NgR (Homo sapiens, UniProt Q9BZR6); details: described in the art; cited from earlier work
T1 sequence (Q9BZR6 27-447): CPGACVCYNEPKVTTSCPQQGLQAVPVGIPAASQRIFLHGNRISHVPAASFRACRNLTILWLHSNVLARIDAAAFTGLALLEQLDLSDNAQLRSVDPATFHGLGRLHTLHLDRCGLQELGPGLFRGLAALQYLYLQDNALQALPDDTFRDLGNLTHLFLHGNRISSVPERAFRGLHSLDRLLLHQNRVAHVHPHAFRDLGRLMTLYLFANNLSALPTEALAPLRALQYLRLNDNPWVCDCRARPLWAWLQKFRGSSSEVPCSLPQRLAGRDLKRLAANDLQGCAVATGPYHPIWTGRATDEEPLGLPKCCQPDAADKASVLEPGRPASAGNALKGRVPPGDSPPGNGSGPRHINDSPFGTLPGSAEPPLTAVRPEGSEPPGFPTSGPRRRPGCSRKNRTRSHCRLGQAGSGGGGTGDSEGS

Nogo = biological target: T2, Nogo (Homo sapiens, UniProt Q9NQC3, S458P); details: described in the art; cited from earlier work
T2 sequence (Q9NQC3 1-1192 S458P): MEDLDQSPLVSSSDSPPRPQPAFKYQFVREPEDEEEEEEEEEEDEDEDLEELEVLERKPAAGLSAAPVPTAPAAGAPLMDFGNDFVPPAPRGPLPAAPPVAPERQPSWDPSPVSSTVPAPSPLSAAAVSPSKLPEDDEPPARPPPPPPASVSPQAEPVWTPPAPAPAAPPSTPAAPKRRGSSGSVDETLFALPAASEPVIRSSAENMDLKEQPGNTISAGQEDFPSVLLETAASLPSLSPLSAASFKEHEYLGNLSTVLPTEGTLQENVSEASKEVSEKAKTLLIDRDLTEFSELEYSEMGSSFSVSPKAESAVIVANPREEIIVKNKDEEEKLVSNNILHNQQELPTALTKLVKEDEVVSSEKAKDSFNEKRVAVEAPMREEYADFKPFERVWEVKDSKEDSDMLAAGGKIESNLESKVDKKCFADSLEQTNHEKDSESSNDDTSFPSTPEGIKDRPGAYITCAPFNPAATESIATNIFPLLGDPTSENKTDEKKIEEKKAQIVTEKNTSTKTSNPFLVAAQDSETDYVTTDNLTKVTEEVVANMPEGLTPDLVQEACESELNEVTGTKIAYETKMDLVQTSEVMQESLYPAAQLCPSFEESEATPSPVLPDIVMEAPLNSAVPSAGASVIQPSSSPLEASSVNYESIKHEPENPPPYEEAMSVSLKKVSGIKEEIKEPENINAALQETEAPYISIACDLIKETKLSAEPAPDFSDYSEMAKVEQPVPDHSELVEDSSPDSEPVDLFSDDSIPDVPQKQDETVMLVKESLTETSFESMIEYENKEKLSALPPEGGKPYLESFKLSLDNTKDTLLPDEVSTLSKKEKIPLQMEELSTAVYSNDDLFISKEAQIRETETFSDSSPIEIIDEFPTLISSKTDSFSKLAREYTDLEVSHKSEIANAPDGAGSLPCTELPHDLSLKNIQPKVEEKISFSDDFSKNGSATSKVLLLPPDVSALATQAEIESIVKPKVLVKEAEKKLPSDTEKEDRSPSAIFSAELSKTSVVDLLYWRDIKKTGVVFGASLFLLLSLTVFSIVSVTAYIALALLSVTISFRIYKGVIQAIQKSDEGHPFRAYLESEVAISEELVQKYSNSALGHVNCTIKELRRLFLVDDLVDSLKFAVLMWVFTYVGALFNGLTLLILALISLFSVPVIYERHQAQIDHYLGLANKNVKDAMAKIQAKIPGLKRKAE

[1] = system: cerebellar neurons on CHO cells expressing MAG; experiment: Neurite outgrowth on MAG-expressing CHO cells in the presence of MAG peptides (FIGS. 4 and 5); assay type: cell-based
Method: FIG. 4 Inhibition of neurite outgrowth from cerebellar neurons by MAG; peptides Cerebellar neurons were isolated (Example 1) and grown overnight on a monolayer of control-transfected CHO cells (not shown) or CHO cells expressing MAG in the absence (striped bar) or the presence (grey bars) of MAG peptides (15 μM) derived from MAG Ig-like domain 4 or 5. Neurons were stained for GAP-43 antigen and neurite length was measured. Results are shown as number of neurons in each treatment having neurites longer than two times the length of the cell body.
FIG. 5 Inhibition of neurite outgrowth from cerebellar neurons by MAG peptides Cerebellar neurons were isolated (Example 1) and grown for 18 hrs on a monolayer of control-transfected CHO cells (R2) or CHO cells expressing MAG in the absence of a peptide (MAG) or in the presence of a peptide derived from sialoadhesin Ig-like domain 5 (non-MAG “control peptide”) or a MAG peptide (M433 or M462 at 20 μM) derived from MAG Ig-like domain 5. Neurons were stained for GAP-43 antigen and neurite length was measured and the average length was calculated for 180-200 neurons (+/−SEM).
Confluent monolayers of control, MAG-, truncated MAG- or chimeric MAG-Sn-expressing CHO cells were established over a 24-hour (h) period in individual chambers of an 8-well tissue culture slide (Lab-Tek). Co-cultures were established as described previously (Doherty et al., Nature, 343, pp. 464-66 (1990); Neuron, 5, pp. 209-19 (1990); Mukhopadhyay et al., Neuron, 13, pp. 757-67 (1994)) by adding approximately 5000 cerebellar neurons to the CHO monolayers. Culture medium was SATO containing 2% FCS. After periods of time as indicated, the co-cultures were fixed for 30 minutes (min) with 4% paraformaldehyde and permeabilized with ice-cold methanol for 2 min. The cells were then blocked for 30 min with DMEM containing 10% FCS and incubated for 2 h with a rabbit polyclonal antibody against the neuronal marker GAP43 (1:4000). Cells were washed three times with PBS-BSA (2%) and then incubated for 30 min at room temperature with a biotinylated donkey anti-rabbit Ig (1:300, Amersham), washed three times, and incubated with streptavidin-conjugated Texas Red (1:300, Amersham) for 30 min. After three more washes, the slides were mounted in Permfluor (Baxter) and viewed with a Zeiss fluorescent microscope. The length of the longest neurite for each GAP43-positive neuron was determined using the Biological Detection System image analysis program (Pittsburgh).
Peptides corresponding to amino acid residues […] of MAG (MAG(343-371)), amino acid residues 363-397 (MAG(363-397)), amino acid residues 394-428 (MAG(394-428)), amino acid residues 422-451 (MAG(422-451)), amino acid residues 442-471 (MAG(442-471)), and amino acid residues 461-498 (MAG(461-498)) were synthesized. Peptides were obtained from SynPep Corp. (Dublin, Calif.). MAG(343-371), MAG(363-397) and MAG(394-428) correspond to amino acid residues from the Ig4 domain of MAG. MAG(422-451), MAG(442-471) and MAG(461-498) corresponds to amino acid residues from the Ig5 domain of MAG. […] Results are shown in FIG. 4 (and are represented as number of neurons with processes longer than 2-times the cell diameter). […] Results are shown in FIG. 5 (and are represented as average neurite length for 180-200 neurons).

cerebellar neurons = experiment: Neurite outgrowth of cerebellar neurons on CHO cell monolayers expressing MAG or truncated, deleted or chimeric MAG derivatives (FIG. 1); assay type: cell-based; details: cerebellar neurons grown overnight on CHO cells expressing the construct, versus control-transfected CHO cells; GAP-43 staining
Method: FIG. 1 Inhibition of neurite outgrowth from cerebellar neurons by truncated MAG or chimeric MAG Cerebellar neurons were isolated (Example 1) and grown overnight on a monolayer of control-transfected CHO cells (clear bar) or a monolayer of CHO cells expressing wild-type MAG or truncated, deleted or chimeric MAG derivatives (grey bars). (See Example 2). Neurons were stained for GAP-43 antigen and neurite length was measured and the average length was calculated for 180-200 neurons (+/−SEM).
Cerebellar neurons were isolated essentially as described in Doherty et al., Nature, 343, pp. 464-66 (1990); Neuron, 5, pp. 209-19 (1990); and Kleitman et al., Culturing Nerve Cells, pp. 337-78, MIT Press, Cambridge, Mass./London, England (G. Banker and K. Goslin, Eds.) (1991). Briefly, for animals up to nine days of age, the cerebellum was removed from two animals, and placed in 5 ml of 0.025% trypsin in PBS, triturated, and incubated for a further 10 minutes (min) at 37° C. […]
Confluent monolayers of control, MAG-, truncated MAG- or chimeric MAG-Sn-expressing CHO cells were established over a 24-hour (h) period in individual chambers of an 8-well tissue culture slide (Lab-Tek). […] The length of the longest neurite for each GAP43-positive neuron was determined using the Biological Detection System image analysis program (Pittsburgh).

Molecule: Nogo-66 amino acid residues 31-55: prior-art peptide of Nogo-66 residues 31-55 (hNogo-A residues 1085-1109 of SEQ ID NO: 9) (EELVQKYSNSALGHVNCTIKELRRL; listed as Homo sapiens)
- binding to NgR (NgR): can bind to NgR
- inhibition of axonal outgrowth (Nogo): inhibit axonal outgrowth

Molecule: M433: peptide of MAG amino acid residues 433-457 (SEQ ID NO: 20) (VVKSNPEPSVAFELPSRNVTVNETE)
- attenuation of inhibition of neurite outgrowth by MAG ([1]; peptide 20 μM, 18 hours, FIG. 5): even more strongly attenuated inhibition by MAG

Molecule: MAG(461-498): 38 amino acid peptide of MAG residues 461-498 (SEQ ID NO: 23) (VYSERSGLLLTSILTLRGQAQAPPRVICTSRNLYGTQS)
- effect on the ability of MAG-expressing cells to inhibit neurite outgrowth ([1]; peptide 15 μM, overnight, FIG. 4): no apparent effect on inhibition of neurite outgrowth by MAG; also recorded: does not reduce the ability of wild-type MAG to inhibit neurite outgrowth

B1: MAG: full-length MAG containing all five Ig-like domains, expressed on CHO cells (protein, UniProt P20917 1-627, looked up)
chain: MIFLATLPLFWIMISASRGGHWGAWMPSTISAFEGTCVSIPCRFDFPDELRPAVVHGVWYFNSPYPKNYPPVVFKSRTQVVHESFQGRSRLLGDLGLRNCTLLLSTLSPELGGKYYFRGDLGGYNQYTFSEHSVLDIVNTPNIVVPPEVVAGTEVEVSCMVPDNCPELRPELSWLGHEGLGEPTVLGRLREDEGTWVQVSLLHFVPTREANGHRLGCQAAFPNTTLQFEGYASLDVKYPPVIVEMNSSVEAIEGSHVSLLCGADSNPPPLLTWMRDGMVLREAVAKSLYLDLEEVTPGEDGVYACLAENAYGQDNRTVELSVMYAPWKPTVNGTVVAVEGETVSILCSTQSNPDPILTIFKEKQILATVIYESQLQLELPAVTPEDDGEYWCVAENQYGQRATAFNLSVEFAPIILLESHCAAARDTVQCLCVVKSNPEPSVAFELPSRNVTVNETEREFVYSERSGLLLTSILTIRGQAQAPPRVICTSRNLYGTQSLELPFQGAHRLMWAKIGPVGAVVAFAILIAIVCYITQTRRKKNVTESSSFSGGDNPHVLYSPEFRISGAPDKYESEKQRLGSERRLLGLRGESPELDLSYSHSDLGKRPTKDSYTLTEELAEYAEIRVK
modifications: full-length
notes: full-length MAG containing all five Ig-like domains, expressed on CHO cells
- inhibition of neurite outgrowth by the expressed MAG construct (cerebellar neurons): capable of inhibiting neurite outgrowth
